From patent US20230212239A1, “INHIBITORS OF CBL AUTOINHIBITION AND RELATED METHODS” (THE HOSPITAL FOR SICK CHILDREN, priority 2020, published 2023) come the findings set out here.

The assay has as its target T1, CBL (47-357) S226E (UniProt P22681 47-357).
T1 construct: range 47-357; Point mutant within Duet-His-Δlinker-hSLAP2-CBL; also called S226E (CBL mutant)
T1 sequence (looked up): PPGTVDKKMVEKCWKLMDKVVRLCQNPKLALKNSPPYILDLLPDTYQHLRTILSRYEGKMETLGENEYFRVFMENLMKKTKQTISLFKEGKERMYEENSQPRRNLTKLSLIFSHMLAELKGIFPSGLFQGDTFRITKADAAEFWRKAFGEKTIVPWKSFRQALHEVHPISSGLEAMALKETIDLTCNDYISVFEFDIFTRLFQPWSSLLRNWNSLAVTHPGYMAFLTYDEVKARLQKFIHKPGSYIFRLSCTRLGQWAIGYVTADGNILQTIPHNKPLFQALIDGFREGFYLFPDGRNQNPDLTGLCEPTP
Briefly: Ni-NTA co-purification from Duet co-expression, high salt (0.5 M NaCl), Coomassie SDS-PAGE. How it is done:
Cell pellets were resuspended in either high or low salt (as for high salt except 25 mM HEPEs pH 7.5, 150 mM NaCl) lysis buffer and purified as above on Ni-NTA agarose (Qiagen) with wash buffer (25 mM HEPEs pH 7.5, 150 mM NaCl, 2% glycerol, 20 mM imidazole, 10 mM βME). Bead slurry was mixed with SDS 2X loading buffer (125 mM Tris pH 6.8, 4% SDS, 20% glycerol, 0.715 M βME, bromophenol blue), boiled, and analyzed by 10 or 12.5% SDS-PAGE, stained with Coomassie blue.

B1: Trx-His(6)-Δlinker-hSLAP2 (human SLAP2 29-261) (other)
chain: EAERSKATAVALGSFPAGGPAELSLRLGEPLTIVSEDGDWWTVLSEVSGREYNIPSVHVAKVSHGWLYEGLSREKAEELLLLPGNPGGAFLIRESQTRRGSYSLSVRLSRPASWDRIRHYRIHCLDNGWLYISPRLTFPSLQALVDHYSELADDICCLLKEPCVLQRAGPLPGKDIPLPVTVQRTPLNWKELDSSLLFSEAATGEESLLSEGLRESLSFYISLNDEAVSLDDA
notes: also called Trx-His-SLAP2; SLAP2 WT; not shown: N-terminal thioredoxin (Trx)-His(6)-TEV-site tag and linker of the modified pET32a (Δlinker version)
As to B1, the binding result is recorded as “no binding”.
